Test results taken from US20190315842A1 (DUKE UNIVERSITY, published 2019).
Where no end group is shown, it is not given here. The star is where a group is joined. Biotin = O=C1N[C@H]2[C@H](CS[C@H]2CCCCC(=O)*)N1

T1: GPPPPIDNGDITSFP(GGGK-biotin)
T1 construct: also called biotinylated 15-mer peptide; biotinylated 19-mer
T1 peptide: GPPPPIDNGDITSFPGGGK(Biotin)

T2: 15-mer peptide GPPPPIDNGDITSFP (SEQ ID NO: 114) (human)
T2 construct: Immobilized for SPR; also called parent peptide
T2 peptide: GPPPPIDNGDITSFP

T3: sclerosis autoantigen (Scl-70) (UniProt P11387 2-765, limits assumed)
T3 sequence (looked up): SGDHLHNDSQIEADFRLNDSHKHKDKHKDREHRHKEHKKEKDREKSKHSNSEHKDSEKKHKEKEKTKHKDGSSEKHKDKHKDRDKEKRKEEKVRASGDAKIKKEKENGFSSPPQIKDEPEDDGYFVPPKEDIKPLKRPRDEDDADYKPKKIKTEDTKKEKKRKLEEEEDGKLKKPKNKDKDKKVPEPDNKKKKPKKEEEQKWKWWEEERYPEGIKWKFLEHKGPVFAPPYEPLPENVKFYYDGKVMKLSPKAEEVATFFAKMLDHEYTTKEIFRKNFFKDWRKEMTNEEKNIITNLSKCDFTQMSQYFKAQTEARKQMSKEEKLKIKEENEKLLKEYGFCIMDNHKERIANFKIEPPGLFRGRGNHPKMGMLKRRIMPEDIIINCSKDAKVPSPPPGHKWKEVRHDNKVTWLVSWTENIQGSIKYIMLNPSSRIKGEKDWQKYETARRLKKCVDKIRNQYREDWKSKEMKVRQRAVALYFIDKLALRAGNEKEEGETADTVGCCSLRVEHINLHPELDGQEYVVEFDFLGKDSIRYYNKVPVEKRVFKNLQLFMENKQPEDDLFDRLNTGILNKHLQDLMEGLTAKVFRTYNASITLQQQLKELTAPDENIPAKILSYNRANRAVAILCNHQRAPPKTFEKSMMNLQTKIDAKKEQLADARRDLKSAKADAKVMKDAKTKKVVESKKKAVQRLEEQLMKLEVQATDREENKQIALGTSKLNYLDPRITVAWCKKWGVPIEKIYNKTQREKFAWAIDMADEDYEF

T4: histidine-tRNA ligase (Jo-1) (UniProt P12081 2-509)
T4 sequence (looked up): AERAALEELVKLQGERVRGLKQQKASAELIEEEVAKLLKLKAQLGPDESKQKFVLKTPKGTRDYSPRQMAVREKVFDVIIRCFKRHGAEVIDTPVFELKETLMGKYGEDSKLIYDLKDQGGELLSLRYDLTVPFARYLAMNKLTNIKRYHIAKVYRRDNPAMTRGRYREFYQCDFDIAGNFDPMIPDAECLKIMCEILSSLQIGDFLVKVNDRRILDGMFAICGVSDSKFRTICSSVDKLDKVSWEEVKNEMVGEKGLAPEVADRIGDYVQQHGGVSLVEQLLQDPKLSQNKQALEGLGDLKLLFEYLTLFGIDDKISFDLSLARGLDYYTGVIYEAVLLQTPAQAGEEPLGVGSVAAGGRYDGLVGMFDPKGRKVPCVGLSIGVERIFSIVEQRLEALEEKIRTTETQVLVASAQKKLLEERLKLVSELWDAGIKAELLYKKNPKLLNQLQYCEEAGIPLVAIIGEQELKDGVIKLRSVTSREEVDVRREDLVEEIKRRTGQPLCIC

T5: systemic lupus erythematosus autoantigen SSB (UniProt P05455 1-408, limits assumed)
T5 sequence (looked up): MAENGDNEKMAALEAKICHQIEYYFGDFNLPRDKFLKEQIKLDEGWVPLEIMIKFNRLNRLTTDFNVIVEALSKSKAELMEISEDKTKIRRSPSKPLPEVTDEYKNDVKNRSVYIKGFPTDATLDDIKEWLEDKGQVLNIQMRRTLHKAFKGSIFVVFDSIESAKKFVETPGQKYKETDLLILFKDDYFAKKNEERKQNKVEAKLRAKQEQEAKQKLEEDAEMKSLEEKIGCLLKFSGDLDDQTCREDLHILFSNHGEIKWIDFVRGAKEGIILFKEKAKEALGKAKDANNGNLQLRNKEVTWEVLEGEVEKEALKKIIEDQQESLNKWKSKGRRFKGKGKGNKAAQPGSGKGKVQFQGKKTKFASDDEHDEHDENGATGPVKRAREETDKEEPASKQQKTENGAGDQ


Legend:
[1] = target: systemic lupus erythematosus autoantigen SSA; assay: AtheNA Multi-Lyte ANA, Ab at 12.5 ug/ml;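 further: monoclonal antibodies screened for binding to a panel of nuclear autoantigens (SSA, SSB, Sm, RNP, Scl-70, Jo-1, dsDNA, CentB, histones), with anti-HIV and anti-RSV antibodies as controls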
Procedure: (§1) All 7 mAbs were tested against the AtheNA Multi-Lyte panel of autoantigens. The AtheNA Multi-Lyte ANA test for a panel of nuclear antigens: systemic lupus erythematosus autoantigens SSA and SSB, sphingomyelin (Sm), ribonucleoprotein (RNP), sclerosis autoantigen (Scl-70), histidine-tRNA ligase (Jo-1), double-stranded DNA (dsDNA), centromere B (CentB), and histones. 4e10 (Anti HIV, NIH AIDS Reagent Program) and SYNAGIS® (anti-RSV monoclonal antibody palivizumab; “Synagis”) were used a controls.

[2] = target: ribonucleoprotein (RNP); assay: AtheNA Multi-Lyte ANA, Ab at 12.5 ug/ml;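 further: monoclonal antibodies screened for binding to a panel of nuclear autoantigens (SSA, SSB, Sm, RNP, Scl-70, Jo-1, dsDNA, CentB, histones), with anti-HIV and anti-RSV antibodies as controls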
Procedure: as §1

[3] = target: T6, Sm (sphingomyelin); assay: AtheNA Multi-Lyte ANA, Ab at 12.5 ug/ml;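 further: monoclonal antibodies screened for binding to a panel of nuclear autoantigens (SSA, SSB, Sm, RNP, Scl-70, Jo-1, dsDNA, CentB, histones), with anti-HIV and anti-RSV antibodies as controls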
T6 construct: in an ANA panel of nuclear antigens Sm is usually the Smith ribonucleoprotein antigen; Kept, but see recheck
Procedure: as §1

[4] = target: systemic lupus erythematosus autoantigen SSA; assay: AtheNA Multi-Lyte ANA, Ab at 6.25 ug/ml;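 further: monoclonal antibodies screened for reactivity against a panel of nuclear autoantigens, with an anti-HIV and an anti-RSV monoclonal antibody serving as controls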
Procedure: as §1

[5] = target: ribonucleoprotein (RNP); assay: AtheNA Multi-Lyte ANA, Ab at 6.25 ug/ml;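 further: monoclonal antibodies screened for reactivity against a panel of nuclear autoantigens, with an anti-HIV and an anti-RSV monoclonal antibody serving as controls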
Procedure: as §1

[6] = target: T6, Sm (sphingomyelin); assay: AtheNA Multi-Lyte ANA, Ab at 6.25 ug/ml;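 further: monoclonal antibodies screened for reactivity against a panel of nuclear autoantigens, with an anti-HIV and an anti-RSV monoclonal antibody serving as controls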
Procedure: as §1

[7] = target: T1, GPPPPIDNGDITSFP(GGGK-biotin); assay: ELISA: biotinylated peptide captured on immobilized Neutravidin, antibody at 0.5 µg/ml, anti-human IgG-HRP/ABTS, OD 405 nm
Procedure: After washing, recombinant human monoclonal antibodies were added to the wells at 0.5 μg/ml and incubated for 2 hr at room temperature. The wells were washed and incubated with goat anti-human IgG-gamma horseradish peroxidase conjugate at a 1:1000 dilution. After further washing, bound antibody was detected with 2,2′-azino-bis (3-ethylbenzthiazoline-6-sulfonic acid)(ABTS)/hydrogen peroxide and the absorbance measured at 405 nm.

[8] = target: T2, 15-mer peptide GPPPPIDNGDITSFP (SEQ ID …); assay: assay and antigen not given; Example 10, epitope mapping on the 15-mer peptide
[9] = target: systemic lupus erythematosus autoantigen SSA; assay: AtheNA Multi-Lyte ANA, Ab at 50 ug/ml;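 further: monoclonal antibodies probed against a nuclear autoantigen panel (SSA, SSB, Sm, RNP, Scl-70, Jo-1, dsDNA, CentB, histones), with anti-HIV 4E10 and palivizumab as control antibodies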
Procedure: as §1

[10] = target: ribonucleoprotein (RNP); assay: AtheNA Multi-Lyte ANA, Ab at 50 ug/ml;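 further: monoclonal antibodies probed against a nuclear autoantigen panel (SSA, SSB, Sm, RNP, Scl-70, Jo-1, dsDNA, CentB, histones), with anti-HIV 4E10 and palivizumab as control antibodies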
Procedure: as §1

[11] = target: T6, Sm (sphingomyelin); assay: AtheNA Multi-Lyte ANA, Ab at 50 ug/ml;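 further: monoclonal antibodies probed against a nuclear autoantigen panel (SSA, SSB, Sm, RNP, Scl-70, Jo-1, dsDNA, CentB, histones), with anti-HIV 4E10 and palivizumab as control antibodies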
Procedure: as §1

[12] = target: T3, sclerosis autoantigen (Scl-70); assay: AtheNA Multi-Lyte ANA, Ab at 12.5 ug/ml;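 further: monoclonal antibodies screened for binding to a panel of nuclear autoantigens (SSA, SSB, Sm, RNP, Scl-70, Jo-1, dsDNA, CentB, histones), with anti-HIV and anti-RSV antibodies as controls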
Procedure: as §1

[13] = target: T4, histidine-tRNA ligase (Jo-1); assay: AtheNA Multi-Lyte ANA, Ab at 12.5 ug/ml
Procedure: as §1

[14] = target: T5, systemic lupus erythematosus …; assay: AtheNA Multi-Lyte ANA, Ab at 12.5 ug/ml
Procedure: as §1

[15] = target: T7, Complement Factor H (CFH) protein, full-length (human, UniProt P08603 19-1231); assay: immunoblot, SDS-PAGE under non-reducing conditions, antibody at 0.5 µg/ml, anti-human IgG-HRP, chemiluminescence; lane numbers as in Table 10
T7 construct: also called full-length CFH; native CFH

[16] = target: T3, sclerosis autoantigen (Scl-70); assay: AtheNA Multi-Lyte ANA, Ab at 6.25 ug/ml;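 further: monoclonal antibodies screened for reactivity against a panel of nuclear autoantigens, with an anti-HIV and an anti-RSV monoclonal antibody serving as controls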
Procedure: as §1

[17] = target: T4, histidine-tRNA ligase (Jo-1); assay: AtheNA Multi-Lyte ANA, Ab at 6.25 ug/ml
Procedure: as §1

[18] = target: T5, systemic lupus erythematosus …; assay: AtheNA Multi-Lyte ANA, Ab at 6.25 ug/ml
Procedure: as §1

[19] = target: T8, reduced form of Complement Factor H (CFH), treated with TCEP (human, UniProt P08603 19-1231, disulfides reduced with 10 mM TCEP); assay: immunoblot, SDS-PAGE under reducing conditions, antibody at 0.5 µg/ml, anti-human IgG-HRP, chemiluminescence; lane numbers as in Table 10
T8 construct: also called reduced CFH; reduced form of CFH

[20] = target: T3, sclerosis autoantigen (Scl-70); assay: AtheNA Multi-Lyte ANA, Ab at 50 ug/ml;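 further: monoclonal antibodies probed against a nuclear autoantigen panel (SSA, SSB, Sm, RNP, Scl-70, Jo-1, dsDNA, CentB, histones), with anti-HIV 4E10 and palivizumab as control antibodies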
Procedure: as §1

[21] = target: T4, histidine-tRNA ligase (Jo-1); assay: AtheNA Multi-Lyte ANA, Ab at 50 ug/ml
Procedure: as §1

[22] = target: T5, systemic lupus erythematosus …; assay: AtheNA Multi-Lyte ANA, Ab at 50 ug/ml
Procedure: as §1

[23] = target: systemic lupus erythematosus autoantigen SSA; assay: AtheNA Multi-Lyte ANA, Ab at 25 ug/ml
Procedure: as §1

[24] = target: T3, sclerosis autoantigen (Scl-70); assay: AtheNA Multi-Lyte ANA, Ab at 25 ug/ml
Procedure: as §1

[25] = target: ribonucleoprotein (RNP); assay: AtheNA Multi-Lyte ANA, Ab at 25 ug/ml
Procedure: as §1

[26] = target: T6, Sm (sphingomyelin); assay: AtheNA Multi-Lyte ANA, Ab at 25 ug/ml
Procedure: as §1

T8 sequence (P08603 19-1231 limits assumed): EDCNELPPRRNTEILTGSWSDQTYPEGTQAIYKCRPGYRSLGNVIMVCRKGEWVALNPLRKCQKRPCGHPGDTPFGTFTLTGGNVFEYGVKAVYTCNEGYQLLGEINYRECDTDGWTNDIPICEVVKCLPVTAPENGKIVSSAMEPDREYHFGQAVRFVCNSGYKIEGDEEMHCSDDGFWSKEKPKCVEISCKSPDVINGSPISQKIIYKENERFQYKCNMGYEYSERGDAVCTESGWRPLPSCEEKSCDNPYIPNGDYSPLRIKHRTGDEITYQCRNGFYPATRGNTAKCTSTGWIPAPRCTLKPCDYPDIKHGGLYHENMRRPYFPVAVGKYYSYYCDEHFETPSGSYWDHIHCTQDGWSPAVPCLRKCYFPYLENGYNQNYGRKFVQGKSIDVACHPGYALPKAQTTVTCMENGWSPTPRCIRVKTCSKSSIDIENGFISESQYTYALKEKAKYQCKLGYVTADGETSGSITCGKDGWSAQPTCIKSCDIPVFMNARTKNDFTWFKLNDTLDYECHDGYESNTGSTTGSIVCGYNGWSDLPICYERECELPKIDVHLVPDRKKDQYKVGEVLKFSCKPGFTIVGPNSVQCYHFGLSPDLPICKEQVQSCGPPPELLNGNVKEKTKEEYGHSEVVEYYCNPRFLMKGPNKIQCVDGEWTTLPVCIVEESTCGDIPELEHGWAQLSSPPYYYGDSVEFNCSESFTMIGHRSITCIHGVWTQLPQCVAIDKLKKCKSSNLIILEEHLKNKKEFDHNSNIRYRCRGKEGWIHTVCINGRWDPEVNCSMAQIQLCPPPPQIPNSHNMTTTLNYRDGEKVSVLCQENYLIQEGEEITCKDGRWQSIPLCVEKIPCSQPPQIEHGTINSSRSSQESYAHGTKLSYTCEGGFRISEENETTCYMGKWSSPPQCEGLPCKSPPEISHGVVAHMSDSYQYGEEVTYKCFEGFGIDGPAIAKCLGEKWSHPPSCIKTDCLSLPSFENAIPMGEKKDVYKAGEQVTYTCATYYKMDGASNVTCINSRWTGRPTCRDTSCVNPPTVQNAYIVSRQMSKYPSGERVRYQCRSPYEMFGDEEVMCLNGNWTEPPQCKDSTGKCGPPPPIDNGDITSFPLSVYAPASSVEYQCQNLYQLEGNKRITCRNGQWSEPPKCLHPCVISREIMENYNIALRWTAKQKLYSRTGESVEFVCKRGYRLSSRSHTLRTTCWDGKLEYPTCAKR
T7 sequence (P08603 19-1231 limits assumed): as above

| Binder | AtheNA signal [1] | AtheNA signal [2] | AtheNA signal [3] | AtheNA signal [4] | AtheNA signal [5] | AtheNA signal [6] | binding result [7] | EC50 [8] [µg/mL] | AtheNA signal [9] | AtheNA signal [10] | AtheNA signal [11] | AtheNA signal [12] | binding result [15] | AtheNA signal [16] | binding result [19] | AtheNA signal [20] | AtheNA signal [23] | AtheNA signal [25] | AtheNA signal [26] | also measured |
| --- | --- | --- | --- | --- | --- | --- | --- | --- | --- | --- | --- | --- | --- | --- | --- | --- | --- | --- | --- | --- |
| Ab7960/293i (antibody, IgG1, V domains shown, Recombinant human antibody with IgG1 heavy chain backbone and kappa light chain constant; they begin at LVESGGG and MTQSP; also called mAb 7960; mAb7960) VH: LVESGGGVVQPGKSLRLSCVASGFSFSTYGMHWVRQAPGKGLEWVAVMSFDGKTKYYADSVKGRFTISRDNPKNTLYLQMNSLRSEDTAVYYCAKGGAAAAVFDSWGPGILLTVSS VL: MTQSPNSLAVSLGGRATINCKASQSILYRSNNKNYLAWYQHKAGQPPKLLIYWASTRESGVPERFSGSGSRTDFTLTINGLQAEDVAVYYCQQYYNPPWTFGQGTKVEIK | 4 | 3 | 4 | 2 | 2 | 2 | binds | 0.00782 | 6 | 4 | 2 | 3 | binds | 1 | binds | 3 |  |  |  | AtheNA signal [13]: 4; AtheNA signal [14]: 8; AtheNA signal [17]: 2; AtheNA signal [18]: 7; AtheNA signal [21]: 5; AtheNA signal [22]: 8 |
| Ab7964 (antibody, IgG1, V domains shown, Recombinant human antibody with IgG1 heavy chain backbone and kappa light chain constant; they begin at LVESGGG and MTQSP; also called Ab7964/293i; mAb 7964) VH: LVESGGGVVQPGRSLRLSCAASGVTFSRYGMHWVRQAPGKGLEWVAVISYDEKTKYYADSVKGRFTISRDNSKNTLFLHMNRLRYEDTAVYYCAKGASSGAYFDYWGQGTLVTVSS VL: not shown | 132 | 51 | 67 | 101 | 44 | 47 | binds | 0.0152 | 162 | 62 | 137 |  | binds |  | binds |  | 168 | 56 | 96 |  |

Continued, in another order:

| AtheNA signal [1] | AtheNA signal [2] | AtheNA signal [3] | AtheNA signal [4] | AtheNA signal [5] | AtheNA signal [6] | binding result [7] | EC50 [8] [µg/mL] | AtheNA signal [9] | AtheNA signal [10] | AtheNA signal [11] | AtheNA signal [12] | binding result [15] | AtheNA signal [16] | binding result [19] | AtheNA signal [20] | AtheNA signal [23] | AtheNA signal [25] | AtheNA signal [26] | Binder | also measured |
| --- | --- | --- | --- | --- | --- | --- | --- | --- | --- | --- | --- | --- | --- | --- | --- | --- | --- | --- | --- | --- |
| 56 | 8 | 7 | 32 | 4 | 5 | binds | 0.00648 | 92 | 13 | 10 |  |  |  |  |  |  |  |  | Ab7955 (antibody, V domains shown, Recombinant human antibody with IgG1 heavy chain backbone and kappa light chain constant; also called mAb 7955; clone 19) VH: LVESGGGVVRPGRSLRLSCVASGFTFNAYGMHWVRQGPGKGLEWLAVISYEGKTVYYADSVKDRFTISRDNSRNTVSLHLNNLRGEDTAVYYCAKGSASAAVLQHWGQGTLVSVTS VL: MTQSPGSLAVSLGSRATINCKSSRSLLYRSNNKNYLAWYQQKPGQSPRLLIYWASSRESGVPDRFSGGGSGTSFTLTISSLQAEDVAVYYCQQYFNPPWTFGQGTKVEIK |  |
| 24 | 6 | 5 | 18 | 7 | 4 | binds | 0.0144 | 40 | 8 | 6 | 3 | binds | 2 | binds | 3 | 31 | 8 | 5 | Ab7961/293i (antibody, IgG1, V domains shown, Recombinant human antibody with IgG1 heavy chain backbone and kappa light chain constant; they begin at LVESGGG and MTQSP; also called mAb 7961; clone 24) VH: LVESGGGVVQPGKSLRLSCVASGFTFSSYGMHWVRQAPGKGLEWVAVMSFDGKTKYYADSVKGRFTISRDNPKNTLYLQMNSLRSEDTAVYYCAKGGAAAAVFDSWGQGILLTVSS VL: MTQSPNSLAVSLGGRATINCKTSQSILYRSNNKNYLAWYQHKSGQPPKLLIYWASTRESGVPDRFSGSGSRTDFTLTISGLQAEDVAVYYCQQYYNPPWTFGQGTKVEIK | AtheNA signal [24]: 3 |
